The values below come from patent publication WO2023182244A1 (dated 2023).

B1: YGI-1E10 (VHH)
VHH: EVQLVESGGGLVQAGGSLRLSCTAPKSIASFNSVGWYRQAPGKQRELVATITRSRTTNYADSARGRFTISRDNTKNMMFLQMNSLKPEDTAVYYCNARDIVPVFQTYWGQGTRVTVSS
notes: Llama VHH expressed in E. coli from pMEK222 (FLAG tag and His tag), purified on Co resin; also called VHH antibody YGI-1E10; not shown: FLAG tag and His tag from vector pMEK222; not clear whe
B2: YGI-1B6 (VHH)
VHH: EVQLVESGGGLVQAGGSLRLSCAASGRTFSNYFMGWFRQAPGKEREFVAAISWSGGSTYYTDSVKGRFTISRDNAKNTMYLQMNTLKPEDTAVYYCAAEKASLSGPSYGLGLDFSRYDYWGQGTQVTVSS
notes: Llama VHH expressed in E. coli from pMEK222 (FLAG tag and His tag), purified on Co resin; also called VHH antibody YGI-1B6; not shown: FLAG tag and His tag from vector pMEK222; not clear whe
B3: YGI-1H3 (VHH)
VHH: EVQLVESGGGLVQAGGSLRLSCVVSGRSFSSLAMGWFRQAPGNQREFVAAISWSGGSSYYGDSVKGRFTISRDDAKNTVYLQMDSLKPEDTADYYCATEIVPKYDTAAYYKSQGAFGSWGQGTQVTVSS
notes: Llama VHH expressed in E. coli from pMEK222 (FLAG tag and His tag), purified on Co resin; also called VHH antibody YGI-1H3; not shown: FLAG tag and His tag from vector pMEK222; not clear whe
B4: YGI-1C5 (VHH)
VHH: EVQLVESGGGLVQTGGSLRLSCAASGLTFSNYAMGWFRQAPGKEREFVATINWSSSRTIYADSVKGRFTISREDAKNTVYLQMNSLKPEDTAVYYCAAEGGAPRWTTGTRRNDYRYWGQGTQVTVSS
notes: Llama VHH expressed in E. coli from pMEK222 (FLAG tag and His tag), purified on Co resin; also called VHH antibody YGI-1C5; not shown: FLAG tag and His tag from vector pMEK222; not clear whe
B5: YGI-1F4 (VHH)
VHH: EVQLVESGGGLVQAGGSLRLSCGASGRTFSNYAMGWFRQAPGKEREFVAAINWSGDKTDYADSVKGRFTISRDNVKNFVALQMNSLKPEDTAVYYCATEGGFPQFGSNLKRTSFGLWGQGTQVTVSS
notes: Llama VHH expressed in E. coli from pMEK222 (FLAG tag and His tag), purified on Co resin; also called VHH antibody YGI-1F4; not shown: FLAG tag and His tag from vector pMEK222; not clear whe

This assay addresses T1, HuNoV GII.2 VLP (VP1 of HuNoV GII.2 OSN201926, baculovirus-expressed virus-like particle) (human norovirus GII.2 (OSN201926), …).
T1 construct: VP1 gene cloned from HuNoV GII.2 (OSN201926), expressed by the baculovirus method as a VLP and purified by ultracentrifugation; also called HuNoV GII.2 VP1; HuNoV GII.2 VLP1
T1 chain: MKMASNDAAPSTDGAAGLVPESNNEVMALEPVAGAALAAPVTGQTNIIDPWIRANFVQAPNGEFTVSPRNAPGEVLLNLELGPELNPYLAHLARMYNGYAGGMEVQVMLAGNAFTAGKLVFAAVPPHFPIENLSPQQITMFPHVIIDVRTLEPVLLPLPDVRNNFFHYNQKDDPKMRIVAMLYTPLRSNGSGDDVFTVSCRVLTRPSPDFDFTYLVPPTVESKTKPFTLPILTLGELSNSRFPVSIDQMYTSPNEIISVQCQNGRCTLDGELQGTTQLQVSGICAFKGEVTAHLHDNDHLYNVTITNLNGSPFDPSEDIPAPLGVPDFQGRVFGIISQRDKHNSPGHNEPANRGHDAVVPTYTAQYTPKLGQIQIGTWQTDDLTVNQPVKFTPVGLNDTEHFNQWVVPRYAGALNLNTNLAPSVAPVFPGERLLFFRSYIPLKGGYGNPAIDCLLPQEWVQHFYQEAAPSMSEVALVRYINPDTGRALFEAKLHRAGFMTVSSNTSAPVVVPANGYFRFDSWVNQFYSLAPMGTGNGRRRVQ
In words: ELISA of E. coli periplasm fractions on HuNoV GII.2 VLP; clones selected by binding to the antigen.
Take B1: the binding result was “binds”.
In the case of B2, the binding result is reported as “binds”.
With B3 the entry was “binds”.
For B4, the binding result was “binds”.
The entry for B5 is “binds”.
